Where a chain is given by its changes, count along the chain named.
What was measured:
[1] = target: T1, CTLA-4-hFc (immunogen A; hFc-labeled CTLA-4 extracellular domain protein) (human, UniProt P16410 36-161); assay: blocking assay, CTLA-4 protein, competitor B7.2
T1 construct: range 36-161; Made in HEK293 cells, purified on protein A; also called CLTA-4-hFc; CTLA-4 protein; not shown: human IgG Fc fragment (hFc) of the pCpC vector
T1 sequence (looked up): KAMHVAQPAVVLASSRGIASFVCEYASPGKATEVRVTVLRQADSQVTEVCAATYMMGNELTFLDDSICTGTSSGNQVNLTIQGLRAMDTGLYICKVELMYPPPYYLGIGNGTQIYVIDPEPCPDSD
Description: (§1) CTLA-4 extracellular domain protein (CTLA-4-hFc) was diluted with PBS to a final concentration of 1.0 μg/mL, and then added to a 96-well ELISA plate as 100 μl per well. The plate was covered with a plastic film and incubated overnight at 4° C. The plate was washed twice with plate washing solution [PBS containing 0.01% (v/v) Tween 20] on the next day, and added with blocking solution [PBS containing 0.01% (v/v) Tween 20 and 1% (w/w) BSA] and blocked at room temperature for 2 hours. […] After 2 hours, the plate was washed 3 times with a plate washing solution [PBS containing 0.01% (v/v) Tween 20]. HRP (horseradish peroxidase) labeled avidin diluent (purchased from Sigma) was added 100 microliters per well, and after the plate was incubated for 2 hours at 37° C., it was washed with plate washing solution [PBS containing 0.01% (v/v) Tween 20] for 3 times. […] TMB substrate was added to each well. After incubated at room temperature for 30 minutes, the plate was added with […] stop solution (1.0N HCl) to each well. An ELISA plate reader (SpectraMax 384plus, Molecular Device) was used to read the A450 nm value.

[2] = target: T1, CTLA-4-hFc (immunogen A; hFc-labeled …); assay: blocking assay, CTLA-4 protein, competitor B7.1
Description: as §1

[3] = target: T2, monkey CTLA-4, full length, on transfected HEK293 cells (monkey); assay: FACS, monkey CTLA-4 expressing cells
T2 construct: whole, on cells; also called cCTLA-4; HEK293-cCTLA-4
From the text: The pIRES plasmid with the monkey-derived CTLA-4 full-length gene was transfected into the HEK293 cell line to construct a HEK293 stable cell line containing monkey CTLA-4 (herein referred to as HEK293-cCTLA-4 stable cell line), wherein the database accession number of the monkey CTLA-4 nucleotide sequence is XM_005574014.1. The HEK293-hCTLA-4 stable cell line and HEK293-cCTLA-4 stable cell line were expanded in a T-75 cell culture flask to a 90% confluence. The medium was aspirated, and the cells were washed with HBSS buffer (Hanks Balanced Salt Solution, purchased from Invitrogen) twice, then treated with an enzyme-free cell dissociation fluid (Versene solution, purchased from Life technology) and the cells were collected. The cells were washed with HBSS buffer twice. After counted, the cells were diluted with HBSS buffer to 2×10⁶ cells per ml, added with 1% goat serum blocking solution, wherein the percentage was the mass percantage. Cells were incubated on ice for 30 minutes, then washed twice with HBSS buffer by centrifugation. The collected cells were suspended in the FACS buffer (HBSS containing 1% BSA, wherein the percentage was the mass percantage) to 2×10⁶ cells/ml, added as 100 microliters per well to a 96-well FACS reaction plate, added with 100 microliters per well of the purified CTLA-4 antibody sample to be tested, incubated on ice for 2 hours. The plate was washed twice with the FACS buffer by centrifugation, added with 100 microliters of fluorescent (Alexa 488)-labeled secondary antibodies (purchased from Invitrogen) per well, and incubated on ice for 1 hour. The plate was washed 3 times with FACS buffer by centrifugation, added with 100 μl fixative solution [4% (v/v) Paraformaldehyde] per well to suspend the cells. 10 minutes later, it was washed 2 times with FACS buffer by centrifugation. The cells were suspended with 100 microliters of FACS buffer, FACS (FACS Calibur, purchased from BD) was used for detection and the results were analyzed.

[4] = target: T3, CTLA-4 on human T lymphocytes (PBMC, CD3+ T cells) (human, UniProt P16410 36-223); assay: cell-based or functional assay
T3 sequence (looked up): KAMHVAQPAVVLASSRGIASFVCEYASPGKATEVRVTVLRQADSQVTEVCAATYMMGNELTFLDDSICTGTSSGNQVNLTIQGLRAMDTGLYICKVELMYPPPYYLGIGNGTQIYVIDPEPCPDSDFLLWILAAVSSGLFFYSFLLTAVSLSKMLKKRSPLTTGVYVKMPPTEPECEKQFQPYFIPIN

[5] = target: T4, human CTLA-4 (Y201V), full length, on transfected cells (human, UniProt P16410 36-223); assay: FACS, human CTLA-4 expressing cells
T4 construct: whole, on cells; also called hCTLA-4; HEK293-hCTLA-4 (Y201V)
T4 sequence (looked up): T3 sequence (looked up) with Y166V

B1: 31C12F3 fully human CTLA-4 antibody (human IgG1, kappa) (antibody, V domains shown)
VH: QVQLVESGGGVVQPGRSLILSCAASGFTFSSYGMHWVRQAPGKGLEWVAVVWYDGSNKYYADSVKGRFTISRDNSKNTLYLQMSSLRAEDTAVYYCARGGIVVPGLFEYWGQGSLVTVSS
VL: DIQMTQSPSSLSASVGDRVAITCRTSQSISNLLNWYQQKPGKAPELLIYAPSSFQSGVPSRFRGSGSGTDFTLTISSLQPEDFATYYCQQSYSTPFTFGPGTKVDIK
notes: also called mAb010
- % Block at 0.000128 nM [1]: 0%
- % Block at 0.0128 nM [1]: 25.6%
- % Block at 0.064 nM [1]: 48.1%
- % Block at 0.32 nM [1]: 84.4%
- % Block at 1.6 nM [1]: 99%
- % Block at 8 nM [1]: 99.1%
- % Block at 40 nM [1]: 99.1%
- % Block at 200 nM [1]: 99.2%
- % Block at 0.000128 nM [2]: 0%
- % Block at 0.0128 nM [2]: 5.1%
- % Block at 0.064 nM [2]: 30.4%
- % Block at 0.32 nM [2]: 74.5%
- % Block at 1.6 nM [2]: 95.9%
- % Block at 8 nM [2]: 98.5%
- % Block at 40 nM [2]: 99.1%
- % Block at 200 nM [2]: 99.3%
- MFI at 0.000128 nM [3]: 2
- MFI at 0.0128 nM [3]: 34
- MFI at 0.064 nM [3]: 98
- MFI at 0.32 nM [3]: 261
- MFI at 1.6 nM [3]: 455
- MFI at 8 nM [3]: 654
- MFI at 40 nM [3]: 712
- MFI at 200 nM [3]: 668
- IL-2 secretion, pg/ml, at 0.13 ug/ml, N = 1 [4]: 1660 pg/mL
- IL-2 secretion, pg/ml, at 0.13 ug/ml, N = 2 [4]: 1630 pg/mL
- IL-2 secretion, pg/ml, at 0.37 ug/ml, N = 1 [4]: 1760 pg/mL
- IL-2 secretion, pg/ml, at 0.37 ug/ml, N = 2 [4]: 2000 pg/mL
- IL-2 secretion, pg/ml, at 1.1 ug/ml, N = 1 [4]: 2650 pg/mL
- IL-2 secretion, pg/ml, at 1.1 ug/ml, N = 2 [4]: 3630 pg/mL
- IL-2 secretion, pg/ml, at 3.3 ug/ml, N = 1 [4]: 4420 pg/mL
- IL-2 secretion, pg/ml, at 3.3 ug/ml, N = 2 [4]: 3330 pg/mL
- IL-2 secretion, pg/ml, at 10 ug/ml, N = 1 [4]: 5020 pg/mL
- IL-2 secretion, pg/ml, at 10 ug/ml, N = 2 [4]: 3810 pg/mL
- IL-2 secretion, pg/ml, at 30 ug/ml, N = 1 [4]: 5920 pg/mL
- IL-2 secretion, pg/ml, at 30 ug/ml, N = 2 [4]: 7370 pg/mL
- MFI at 0.000128 nM [5]: 3
- MFI at 0.0128 nM [5]: 34
- MFI at 0.064 nM [5]: 96
- MFI at 0.32 nM [5]: 260
- MFI at 1.6 nM [5]: 547
- MFI at 8 nM [5]: 756
- MFI at 40 nM [5]: 941
- MFI at 200 nM [5]: 998

— patent publication US20210324080A1 (JIANGSU HUAIYU PHARMACEUTICAL, published 2021)
